The results in this text go back to patent US20200231640A1 (ANTIBIOTIC ALTERNATIVES, published 2020).

One assay addresses T1, S100A9 subunit (human, UniProt P06702 1-114).
T1 construct: Captured with anti-S100A9 from lysate of cells that also express S100A8, so it probably stood in the complex; also called MRP14; calgranulin B
T1 sequence (looked up): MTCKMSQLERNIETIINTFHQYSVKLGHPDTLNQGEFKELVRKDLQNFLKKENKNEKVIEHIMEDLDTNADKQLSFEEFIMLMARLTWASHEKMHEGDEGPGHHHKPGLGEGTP
The assay is described as follows: immunofluorescence of mRNA-transfected KB cells with the heterodimer-specific antibody 27E10. How it is done:
After CAMP, S100A8/S100A9 mRNA transfection for 16 hours, cells were fixed with 4% paraformaldehyde for 10 minutes, washed with PBS (pH 7.4), and then permeabilized with 0.25% Triton X-100 for 10 minutes. After blocking one hour with 1% BSA in PBS/0.1% Tween 20 and rinsing 3× with PBS, cells were incubated with mouse anti-calprotectin (mAb 27E10, sc-33714, Santa Cruz Biotechnolology, Inc., Santa Cruz, Calif.) or mouse anti-LL37 (sc-166770, Santa Cruz Biotechnolology, Inc., Santa Cruz, Calif.) for one hour, followed by Alexa Fluor 568-conjugated goat anti-mouse IgG or Alexa Fluor 488-conjugated goat anti-rabbit IgG (Life Technologies Corp., Carlsbad, Calif.) for one hour. For EGFP mRNA transfection, no antibody incubation was needed. Nuclei were stained with DAPI. Fluorescence images were captured using an epifluorescence microscope system. A8-IRES-A9 and A8-nIRES-A9 mRNA transfection for 40 hours were also performed.

For a further assay, the target named is T2, Chk1 (human, UniProt O14757 1-476).
T2 construct: also called checkpoint kinase Chk1; p-Chk1 (Ser345)
T2 sequence (looked up): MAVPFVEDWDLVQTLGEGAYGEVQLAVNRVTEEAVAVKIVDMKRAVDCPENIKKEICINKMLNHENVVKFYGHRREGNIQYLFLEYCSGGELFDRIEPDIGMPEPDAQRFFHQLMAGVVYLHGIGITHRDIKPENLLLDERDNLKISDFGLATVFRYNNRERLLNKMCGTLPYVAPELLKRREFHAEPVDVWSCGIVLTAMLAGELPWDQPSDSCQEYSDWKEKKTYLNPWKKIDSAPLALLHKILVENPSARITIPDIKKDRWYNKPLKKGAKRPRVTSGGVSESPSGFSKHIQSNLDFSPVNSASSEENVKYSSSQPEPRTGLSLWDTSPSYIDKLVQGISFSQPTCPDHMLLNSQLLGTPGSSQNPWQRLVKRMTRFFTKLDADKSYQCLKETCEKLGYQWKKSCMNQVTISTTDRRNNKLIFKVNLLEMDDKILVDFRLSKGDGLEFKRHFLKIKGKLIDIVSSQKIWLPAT
The assay is described as follows: co-immunoprecipitation from cell lysate.

B1: S100A8 (other, human, UniProt P05109 1-93, looked up)
chain: MLTELEKALNSIIDVYHKYSLIKGNFHAVYRDDLKKLLETECPQYIRKKGADVWFKELDINTDGAVNFQEFLILVIKMGVAAHKKSHEESHKE
notes: Expressed in KB cells from transfected mRNA; also called MRP8; calgranulin A
Regarding B1, the binding result with S100A9 subunit was “binds”.

B2: S100A8/A9 protein complex (calprotectin; S100A8 complexed with S100A9) (other, human)
chain 1: B1 chain
chain 2: T1 sequence (looked up)
notes: Cytosolic complex in lysates of stably transfected KB-S100A8/A9 cells (co-immunoprecipitation), or in mRNA-transfected KB cells (immunofluorescence); also called S100A8/S100A9 heterodimer; MRP8/14
With B2, the binding result with Chk1 was “no binding”.
